{
  "source": "patent US5118793A",
  "about": "“Modified heparin cofactor II” (Washington University, priority 1991, dated 1992)",
  "molecules": {"B1": {"name": "native rHCII: recombinant full-length heparin cofactor II expressed in E. coli; amino acid sequence identical to HCII purified from human plasma (protein, UniProt P05546 20-499, looked up)", "Heparin cofactor 2": "GSKGPLDQLEKGGETAQSADPQWEQLNNKNLSMPLLPADFHKENTVTNDWIPEGEEDDDYLDLEKIFSEDDDYIDIVDSLSVSPTDSDVSAGNILQLFHGKSRIQRLNILNAKFAFNLYRVLKDQVNTFDNIFIAPVGISTAMGMISLGLKGETHEQVHSILHFKDFVNASSKYEITTIHNLFRKLTHRLFRRNFGYTLRSVNDLYIQKQFPILLDFKTKVREYYFAEAQIADFSDPAFISKTNNHIMKLTKGLIKDALENIDPATQMMILNCIYFKGSWVNKFPVEMTHNHNFRLNEREVVKVSMMQTKGNFLAANDQELDCDILQLEYVGGISMLIVVPHKMSGMKTLEAQLTPRVVERWQKSMTNRTREVLLPKFKLEKNYNLVESLKLMGIRMLFDKNGNMAGISDQRIAIDLFKHQGTITVNEEGTQATTVTTVGFMPLSTQVRFTVDRPFLFLIYEHRTSCLLFMGRVANPSRS", "modifications": "recombinant, E. coli"}, "B2": {"name": "rHCII(Leu444 →Arg): heparin cofactor II in which the leucine residue at position 444 is replaced by arginine; recombinant, expressed in E. coli (protein, UniProt P05546 20-499, looked up, variant L444R)", "Heparin cofactor 2": "GSKGPLDQLEKGGETAQSADPQWEQLNNKNLSMPLLPADFHKENTVTNDWIPEGEEDDDYLDLEKIFSEDDDYIDIVDSLSVSPTDSDVSAGNILQLFHGKSRIQRLNILNAKFAFNLYRVLKDQVNTFDNIFIAPVGISTAMGMISLGLKGETHEQVHSILHFKDFVNASSKYEITTIHNLFRKLTHRLFRRNFGYTLRSVNDLYIQKQFPILLDFKTKVREYYFAEAQIADFSDPAFISKTNNHIMKLTKGLIKDALENIDPATQMMILNCIYFKGSWVNKFPVEMTHNHNFRLNEREVVKVSMMQTKGNFLAANDQELDCDILQLEYVGGISMLIVVPHKMSGMKTLEAQLTPRVVERWQKSMTNRTREVLLPKFKLEKNYNLVESLKLMGIRMLFDKNGNMAGISDQRIAIDLFKHQGTITVNEEGTQATTVTTVGFMPRSTQVRFTVDRPFLFLIYEHRTSCLLFMGRVANPSRS", "modifications": "recombinant, E. coli-expressed", "notes": "heparin cofactor II in which the leucine residue at position 444 is replaced by arginine; recombinant, expressed in E. coli"}, "B3": {"name": "HCII: heparin cofactor II, a 65,600 dalton plasma glycoprotein, serpin that inhibits thrombin (protein, UniProt P05546 20-499, looked up)", "Heparin cofactor 2": "GSKGPLDQLEKGGETAQSADPQWEQLNNKNLSMPLLPADFHKENTVTNDWIPEGEEDDDYLDLEKIFSEDDDYIDIVDSLSVSPTDSDVSAGNILQLFHGKSRIQRLNILNAKFAFNLYRVLKDQVNTFDNIFIAPVGISTAMGMISLGLKGETHEQVHSILHFKDFVNASSKYEITTIHNLFRKLTHRLFRRNFGYTLRSVNDLYIQKQFPILLDFKTKVREYYFAEAQIADFSDPAFISKTNNHIMKLTKGLIKDALENIDPATQMMILNCIYFKGSWVNKFPVEMTHNHNFRLNEREVVKVSMMQTKGNFLAANDQELDCDILQLEYVGGISMLIVVPHKMSGMKTLEAQLTPRVVERWQKSMTNRTREVLLPKFKLEKNYNLVESLKLMGIRMLFDKNGNMAGISDQRIAIDLFKHQGTITVNEEGTQATTVTTVGFMPLSTQVRFTVDRPFLFLIYEHRTSCLLFMGRVANPSRS"}},
  "key": {"thrombin [1]": {"tested_on": "thrombin", "assay": "Inhibition of thrombin by rHCII, chromogenic substrate Chromozym TH, second-order rate constants", "type": "biochemical, human", "conditions": "for Increase in the rate constant for thrombin inhibition produced by dermatan sulfate: dermatan sulfate versus no GAG; for Increase in the rate constant for thrombin inhibition produced by heparin: heparin versus no GAG", "method": "(§1) Inhibition of proteases by rHCII--Protease inhibition by rHCII was determined by incubating 90 μl of the partially purified rHCII (or the corresponding heparin-Sepharose fractions of a control lysate from cells transformed with pMON-5840) with 5 μl of the protease and 5 μl of either glycosaminoglycan or water in a disposable polystyrene cuvette at room temperature. Final concentrations of the proteases were as follows: thrombin, 15 nM; chymotrypsin, 21 nM; factor Xa, 16 nM; and kallikrein, 10 nM. After a specified period of time from 5 seconds (s) to 150 min, 300-500 μl of the appropriate chromogenic substrate was added, and the absorbance at 405 nm was recorded continuously for 100 s. The rate of change of absorbance was proportional to the concentration of active protease remaining in the incubation. The amounts added and concentrations of each substrate were as follows: Chromozym TH (thrombin), 500 μl, 0.1 mM; N-succinyl-Ala-Ala-Pro-Phe-p-nitroanilde (chymotrypsin), 300 μl, 0.5 mM; Spectrozyme FXa (factor Xa), 400 μl, 0.125 mM; and S-2302 (kallikrein), 300 μl, 0.4 mM.\nProtease inhibition by rHCII in the absence of a glycosaminoglycan--The time courses of inhibition of thrombin, factor Xa, kallikrein, and chymotrypsin by native rHCII(Leu444 →Arg) in the absence of a glycosaminoglycan are indicated in FIG. 3. The incubations were performed under pseudo-first-order conditions, such that the initial concentration of rHCII was greater than the concentration of protease. The pseudo-first-order rate constants (k1) for protease inhibition were determined by fitting the data to the following equation: k1 t=1n([P]0 /[P]t), in which [P]0 =initial prolease activity and [P]t =protease activity at time=t. The second-order rate constants (k2) were then calculated by dividing k by the initial rHCII concentration. It was observed that rHCII(Leu444 →Arg) inhibits thrombin almost 100 times more rapidly than native rHCII in the absence of a glycosaminoglycan Furthermore, rHCII(Leu444 →Arg) inhibits factor Xa and kallikrein, while inhibition of these proteases by native rHCII is undetectable.\nInhibition of thrombin by rHCII in the presence dermatan sulfate or heparin--The time course of inhibition of thrombin was determined in the presence of various concentrations of dermatan sulfate or heparin."}, "chymotrypsin": {"tested_on": "chymotrypsin", "assay": "Inhibition of chymotrypsin by rHCII, chromogenic substrate assay", "type": "biochemical, human", "method": "as §1, with “The amounts added and concentrations of each substrate were as follows: Chromozym TH (thrombin), 500 μl, 0.1 mM; N-succinyl-Ala-Ala-Pro-Phe-p-nitroanilde (chymotrypsin), 300 μl, 0.5 mM; Spectrozyme FXa (factor Xa), 400 μl, 0.125 mM; and S-2302 (kallikrein), 300 μl, 0.4 mM.” left out\nProtease inhibition by rHCII in the absence of a glycosaminoglycan--The time courses of inhibition of thrombin, factor Xa, kallikrein, and chymotrypsin by native rHCII(Leu444 →Arg) in the absence of a glycosaminoglycan are indicated in FIG. 3. […] The pseudo-first-order rate constants (k1) for protease inhibition were determined by fitting the data to the following equation: k1 t=1n([P]0 /[P]t), in which [P]0 =initial prolease activity and [P]t =protease activity at time=t. The second-order rate constants (k2) were then calculated by dividing k by the initial rHCII concentration. […]"}, "thrombin [2]": {"tested_on": "thrombin", "conditions": "cited from earlier work"}},
  "data": [
    {"molecule": "B1", "values": [
      {"measurement": "Increase in the rate constant for thrombin inhibition produced by dermatan sulfate", "setting": "thrombin [1]", "value": "~3500", "unit": "fold"},
      {"measurement": "Increase in the rate constant for thrombin inhibition produced by heparin", "setting": "thrombin [1]", "value": "about 40 fold"},
      {"measurement": "Effect of dermatan sulfate on the rate of inhibition of chymotrypsin", "setting": "chymotrypsin", "value": "does not significantly increase"}
    ]},
    {"molecule": "B2", "values": [
      {"measurement": "Increase in the rate constant for thrombin inhibition produced by dermatan sulfate", "setting": "thrombin [1]", "value": "much smaller effect"},
      {"measurement": "Increase in the rate constant for thrombin inhibition produced by heparin", "setting": "thrombin [1]", "value": "minimal effect"}
    ]},
    {"molecule": "B3", "values": [
      {"measurement": "Increase of the rate of thrombin inhibition by heparin and dermatan sulfate", "setting": "thrombin [2]", "value": "~ 1000 fold"}
    ]}
  ]
}
